Results from PMC4047914 (Cell Death & Disease, 2014).
Values joined by “and” are separate entries in the source; they are usually repeats but may differ in a detail not shown here. Equal values may be shown once.

Columns and labels:
[1] = molecular target: the molecule itself
[2] = molecular target: human ErbB2, wild type, transiently overexpressed in CHO-K1 cells from pCMV6-XL5-ERBB2 (human, UniProt P04626 23-1255); test: ELISA
[3] = molecular target: ErbB2/delD4 (human ErbB2 lacking ECD subdomain D4) (human) (UniProt P04626); test: ELISA
[4] = molecular target: ErbB2/delD2 (human ErbB2 lacking ECD subdomain D2) (human) (UniProt P04626); test: ELISA
[5] = molecular target: human ErbB2 stably overexpressed in CHO-K1 cells (CHO-K1/ErbB2 cells, pcDNA3-ERBB2) (human, UniProt P04626 23-1255); test: cross-linking

Row | Binder | stoichiometry N [1] | Kd [2] [nM] | fold reduction of binding affinity against wild-type ErbB2 [3] [fold] | fold reduction of binding affinity against wild-type ErbB2 [4] [fold] | stoichiometry N [5]
1 | Recombinant human prolidase (PEPD), wild type (enzyme) MAAATGPSFWLGNETLKVPLALFALNRQRLCERLRKNPAVQAGSIVVLQGGEETQRYCTDTGVLFRQESFFHWAFGVTEPGCYGVIDVDTGKSTLFVPRLPASHATWMGKIHSKEHFKEKYAVDDVQYVDEIASVLTSQKPSVLLTLRGVNTDSGSVCREASFDGISKFEVNNTILHPEIVECRVFKTDMELEVLRYTNKISSEAHREVMKAVKVGMKEYELESLFEHYCYSRGGMRHSSYTCICGSGENSAVLHYGHAGAPNDRTIQNGDMCLFDMGGEYYCFASDITCSFPANGKFTADQKAVYEAVLRSSRAVMGAMKPGVWWPDMHRLADRIHLEELAHMGILSGSVDAMVQAHLGAVFMPHGLGHFLGIDVHDVGGYPEGVERIDEPGLRSLRTARHLQPGMVLTVEPGIYFIDHLLDEALADPARASFLNREVLQRFRGFGGVRIEEDVVVTDSGIELLTCVPRTVEEIEACMAGCDKAFTPFSGPK | 2 | 7.3 | 51 | 3.5 | 2 PEPD per 2 ErbB2 (heterotetramer) and 2 PEPD per 1 ErbB2 (heterotrimer)
2 | G278D-PEPD (human PEPD, G→D at amino acid no. 278) (enzyme) MAAATGPSFWLGNETLKVPLALFALNRQRLCERLRKNPAVQAGSIVVLQGGEETQRYCTDTGVLFRQESFFHWAFGVTEPGCYGVIDVDTGKSTLFVPRLPASHATWMGKIHSKEHFKEKYAVDDVQYVDEIASVLTSQKPSVLLTLRGVNTDSGSVCREASFDGISKFEVNNTILHPEIVECRVFKTDMELEVLRYTNKISSEAHREVMKAVKVGMKEYELESLFEHYCYSRGGMRHSSYTCICGSGENSAVLHYGHAGAPNDRTIQNGDMCLFDMDGEYYCFASDITCSFPANGKFTADQKAVYEAVLRSSRAVMGAMKPGVWWPDMHRLADRIHLEELAHMGILSGSVDAMVQAHLGAVFMPHGLGHFLGIDVHDVGGYPEGVERIDEPGLRSLRTARHLQPGMVLTVEPGIYFIDHLLDEALADPARASFLNREVLQRFRGFGGVRIEEDVVVTDSGIELLTCVPRTVEEIEACMAGCDKAFTPFSGPK | 2 | – | – | – | –
